Assay results: patent US20200340016

What was measured:
Assay in all cases: cell_activity
[1] = system: ZFN pair 52742-ELD / 52774-KKR R416S R416S (FokI of 52774) (artificial); conditions: 400 ng mRNA
[2] = system: ZFN pair 52742-ELD R422S / 52774-KKR R422S (FokI of 52742) (artificial); conditions: 400 ng mRNA
[3] = system: ZFN pair SBS52742-ELD / SBS52774-KKR (TRAC) (artificial)
[4] = system: ZFN pair 52742-F1RQ;F3RQ;F5RQ / 52774 R(-5)Q in F1, F3 and F5 of 52742 (artificial); conditions: 6 ug dose
[5] = system: ZFN pair 52742-ELD R447S / 52774-KKR R447S (FokI of 52742) (artificial); conditions: 400 ng mRNA
[6] = system: ZFN pair 52742-ELD / 52774-KKR K387S K387S (FokI of 52774) (artificial); conditions: 400 ng mRNA
[7] = system: ZFN pair 52742-ELD / 52774-KKR K525S K525S (FokI of 52774) (artificial); conditions: 400 ng mRNA
[8] = system: ZFN pair SBS51857-ELD / SBS51949-KKR (BCL11A) (artificial)
[9] = system: ZFN pair SBS51857-ELD / SBS51949-KKR R416S R416S (FokI of 51949) (artificial)
[10] = system: ZFN pair SBS51857-ELD / SBS51949-KKR K448S K448S (FokI of 51949) (artificial); conditions: 60 ug/mL each mRNA
[11] = system: ZFN pair SBS51857-ELD / SBS51949-KKR R447S R447S (FokI of 51949) (artificial); conditions: CD34+ cells, near background
[12] = system: ZFN pair SBS51857-ELD / SBS51949-KKR K525S K525S (FokI of 51949) (artificial); conditions: 60 ug/mL each mRNA
[13] = system: ZFN pair SBS63014 / SBS65526 (3x R-5Q / 4x R-5Q + FokI R416S) three and four finger R(-5)Q; FokI R416S in 65526 (artificial); conditions: 60 ug dose
[14] = system: ZFN pair SBS63014 / SBS65527 (3x R-5Q / 5x R-5Q + FokI R416S) three and five finger R(-5)Q; FokI R416S in 65527 (artificial); conditions: 60 ug dose; no evidence of cleavage
[15] = system: ZFN pair SBS63014 / SBS65721 (3x R-5Q / 3x R-5Q + FokI R416S) three finger R(-5)Q in each ZFN; FokI R416S in 65721 (artificial); conditions: 60 ug dose
[16] = system: ZFN pair 30035 / 30054 (AAVS1) (artificial)
[17] = system: ZFN pair 30035 / 30054 ELD_KKR_K525P K525P (FokI, both ZFNs) (artificial)
[18] = system: ZFN pair 30035 / 30054 ELD_KKR_I479T I479T (FokI, both ZFNs) (artificial)
[19] = system: ZFN pair 30035 / 30054 ELD_KKR_K525A K525A (FokI, both ZFNs) (artificial)
[20] = system: ZFN pair 30035 / 30054 ELD_KKR_Q481E Q481E (FokI, both ZFNs) (artificial)
[21] = system: ZFN pair 30035 / 30054 ELD_KKR_R416E R416E (FokI, both ZFNs) (artificial)
[22] = system: ZFN pair 30035 / 30054 ELD_KKR_R416D R416D (FokI, both ZFNs) (artificial)
[23] = CD34+ cells, 2 ug mRNA each ZFN

Substance: TGGCCCTTTGCAGAAAAGGTTGTTGAACCCTACCGTAAAC (double strand) [off-target XVFENVRX (OT11)]
- activity [1]: 0.93 % indels
- activity [2]: 1.09 % indels
- activity ([3]; 400 ng mRNA each ZFN): 5.82 % indels
- activity ([4]; parent 4.32): 0.47 % indels
- activity [5]: 0.14 % indels
- activity [6]: 3.27 % indels
- activity [7]: 0.79 % indels

Substance: GACTCATTCATCCACTCATTCTGAGCACTTGCTGCACACTAGGCCCTGGGCTGGGGCTTCAGCCCAGGAGTTCACT (double strand) [off-target ZJCRPAXW (OT4)]
- activity ([8]; 60 ug/mL each mRNA): 1.12 % indels
- activity ([9]; 60 ug/mL each mRNA): 0.65 % indels

Substance: CTTCCTGCGGGGTTTTGTGCAAATAACCCATGCTCGGGAGCGAGGCCCTGGGAAGGAGTATCTCGCTTCTTTGGGT (double strand) [off-target NIFMAEVG (OT1)]
- activity [8, 23]: 9.04 % indels
- activity ([10]; parent 21.96): 8.9 % indels
- activity [11]: 0.05 % indels
- activity ([12]; parent 21.96): 0.89 % indels
- activity [13]: 0.17 % indels
- activity [14]: 0.03 % indels
- activity [9, 23]: 0.75 % indels
- activity ([15]; parent 28.0): 0.55 % indels

Substance: AAVS1 intended target
- activity [16]: 57.8 % indels
- activity [17]: 0.01 % indels
- activity [18]: 52.5 % indels
- activity [19]: 73.8 % indels
- activity [20]: 69.9 % indels
- activity [21]: 91.1 % indels
- activity [22]: 70.6 % indels

Substance: TCAGTGATTGGGTTCCGAATCCTCCTCCTGAAAGTGGCCG (double strand) [TRAC intended target JBSCKVMP]
- activity [1]: 87.1 % indels
- activity [2]: 89 % indels
- activity ([3]; 400 ng mRNA each ZFN): 90.7 % indels
- activity ([4]; parent 62.59): 70 % indels
- activity [5]: 70.3 % indels
- activity [6]: 89.1 % indels
- activity [7]: 88.3 % indels

Substance: CCATATGCAGAAAACAGAAACTGTACCCCTTCCTTACACC (double strand) [off-target XSKWTVWD (OT16)]
- activity [1]: 0.74 % indels
- activity [2]: 1.18 % indels
- activity ([3]; 400 ng mRNA each ZFN): 7.39 % indels
- activity ([4]; parent 19.16): 1.43 % indels
- activity [5]: 0.32 % indels
- activity [6]: 3.12 % indels
- activity [7]: 0.96 % indels

Substance: CCGGAGAGAAGGCTCCGGTTCAGCACTGAGATCAGGACGG (double strand) [off-target KXWACMTR (OT3)]
- activity ([3]; 6 ug dose): 1.59 % indels
- activity ([4]; parent 1.59): 0.19 % indels

Substance: TCCTCCATGCTCAGAAAGCCTTTCTTGGAGCCAGGCACACAGGAAATGTTAGCTAGTTAGCATTGGCTCTAATACT (double strand) [off-target PEVYOHIU (OT3)]
- activity [8, 23]: 0.65 % indels
- activity [10]: 4.4 % indels
- activity [11]: 0.03 % indels
- activity [12]: 0.13 % indels
- activity ([13]; no evidence of cleavage): 0.02 % indels
- activity [14]: 0.02 % indels
- activity [9, 23]: 0.08 % indels
- activity ([15]; parent 4.77): 0.04 % indels

Substance: CCTACCCCCACCACCTCACCTTCCCTCAGCCTTGTGTTTCAGCCCCAGTTAGCTGCCCTTAGTTGCTGATGTATTG (double strand) [off-target GJZEIYTO (OT2)]
- activity ([8]; 60 ug/mL each mRNA): 2.81 % indels
- activity ([9]; 60 ug/mL each mRNA): 0.31 % indels
